“Also recorded” adds a separate entry of the source.
Legend:
[1] = system: ARF5; experiment: ARF5 guanine nucleotide exchange ([35S]GTPγS binding); assay type: biochemical
[2] = system: ARF1; experiment: ARF1 guanine nucleotide exchange ([35S]GTPγS binding); assay type: biochemical
[3] = system: ARF6; experiment: ARF6 guanine nucleotide exchange ([35S]GTPγS binding); assay type: biochemical
[4] = Binding of [32P]PI(3,4,5)P3 by GST fusion proteins spotted on nitrocellulose; details: 150 pmol protein on nitrocellulose; relative to GST
Protocol: The 3'-phosphatidylinositol probes labeled at the 3' position were generated using GST-p110 PI3-kinase purified from recombinant bacculovirus infected Sf 9 cells, using either purified phosphatidylinositol phosphates or crude brain lipid. Briefly, 20 mg phospholipid in chloroform was dried under N2 and resuspended in […] of buffer containing Tris-HCl pH 7.4, EDTA 1 mM and incubated in […] phopsphorylation media containing 20 mM Tris-HCl pH 7.4, 100 mM NaCl, 10 mM MgCl2, 0.5 mM EGTA. 0.2 mM adenosine, GST-p110 and 5-10 mCi [g-^32 P]ATP (5 Ci/umol). The reaction was carried out for 2 h at room temperature, quenched by addition of 0.2 ml of 1M HCl, followed by 0.5 ml of chloroform:methanol (1:1). The organic phase containing phospholipids was washed 4 times with 0.4 ml of methanol:HCl (1: 1) and stored at -70° C. until use. Just before use, the lipid was dried under a stream of nitrogen with phosphatidyl serine corresponding to a final concentration of 20 mg/ml. The identities of the PI3-P, PI3,4-P2 and PI3,4,5-P3 were confirmed by TLC and HPLC analysis.
To generate the GST fusion proteins, PCR reactions using the primers: […] (SEQ ID NO:9) and […] (SEQ ID NO:10) for the GST-N construct, […] (SEQ ID NO:11) and […] (SEQ ID NO:12) for the GST-Sec7 construct, […] (SEQ ID NO:13) and […] (SEQ ID NO:14) for the GSTPH construct, and […] (SEQ ID NO:15) and […] (SEQ ID NO:16) for the GSTGRP constructs. The sequences of the PCR products were verified, and cloned into pGEX-5X-3 in the EcoRI and Xba 1 sites. The bacteria were lysed and the fusion proteins were bound to gluthathione agarose according to standard procedures. Elution was effected by incubation of the beads with one volume 20 mM Hepes, 100 mM NaCl, 1 mM dithiotreitol (H buffer) supplemented with 10 mM gluthatione and 1% sodium cholate, and the eluate was dialyzed extensively against H buffer. For binding assays, protein was bound to nitrocellulose using a BIO-RAD BIO-DOT™ apparatus, using 150 pmol per well for binding assays and 7.5 pmol for competition assays. The nitrocellulose was washed in assay buffer, and 3 mm circles of the filters containing the protein were cut out and incubated in […] assay buffer with the relevant lipids and competitors for 2 h under constant agitation. The filters were washed four times with 1 mL assay buffer and counted in a scintillation counter.
In order to determine whether PI(3,4,5)P3 binding could be localized to specific sequences within the GRP structure, GST fusion proteins containing either residues 239 to 399 (PH domain), residues 52 to 260 (Sec7 domain), or residues 5 to 71, full length GRP residues 5-399 were expressed in bacteria and purified on glutathione-conjugated beads. […] 150 pmol of the proteins were spotted on nitrocellulose filters, incubated with [^32 P]PI(3,4,5)P3 and the amount of bound lipid was determined as described. The values are the means of the quadruplicate determinations, and the error bars are the standard deviations. […] Nitrocellulose filters with GST-PH were incubated with 25,000 cpm of each of the phospholipids and the amount of bound lipid determined as described above. The values are the means of quadruplicate determinations and the error bars are the standard deviations. […] Although previous work has shown that PH domain from PLCδ (Lemmon et al. (1995) supra) and various other proteins bind 4,5-polyphosphoinositide, none have been reported to preferentially associate with a 3-polyphosphoinositide. […]

[5] = 40 minutes, phosphatidylcholine and cholate

concentration that maximally activates labeled nucleotide binding to ARF5 [1, 5]: 2.5 µM
concentration that maximally activates labeled nucleotide binding to ARF1 [2, 5]: 2.5 µM
ARF6 guanine nucleotide exchange [3]: no effect and not
binding of [^32 P]PI(3,4,5)P3 by GST fusion protein [4]: extensive binding
B1: GRP: general receptor for phosphoinositides, mouse protein with SEC7 and PH domains (protein)
chain: MDEGGGGEGGSVPEDLSLEEREELLDIRRRKKELIDDIERLKYEIAEVMTEIDNLTSVEESKTTQRNKQIAMGRKKFNMDPKKGIQFLIENDLLQSSPEDVAQFLYKGEGLNKTVIGDYLGERDDFNIKVLQAFVELHEFADLNLVQALRQFLWSFRLPGEAQKIDRMMEAFASRYCLCNPGVFQSTDTCYVLSFAIIMLNTSLHNHNVRDKPTAERFITMNRGINEGGDLPEELLRNLYESIKNEPFKIPEDDGNDLTHTFFNPDREGWLLKLGGRVKTWKRRWFILTDNCLYYFEYTTDKEPRGIIPLENLSIREVEDPRKPNCFELYNPSHKGQVIKACKTEADGRVVEGNHVVYRISAPSPEEKEEWMKSIKASISRDPFYDMLATRKRRIANKK
ARF5 guanine nucleotide exchange ([1]; [^35 S]GTPγS binding): significantly enhanced; also recorded: catalyze nucleotide exchange; also recorded: selectively catalyzes
ARF1 guanine nucleotide exchange ([2]; [^35 S]GTPγS binding to immunoprecipitated ARF1): catalyze nucleotide exchange; also recorded: selectively catalyzes
